Laboratory results from the nanobody polyreactivity screen of Harvey et al. (2022).

Experiment: yeast display, Sf9 membrane polyspecificity reagent, FACS + sequencing; frameworks hold sequencing errors
Outline: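 A synthetic nanobody library was expressed on Saccharomyces cerevisiae BJ5465 by galactose induction for 36–48 hours. The library was stained for 1 hour at 4 °C with 10% biotinylated, detergent-solubilized Sf9 membrane reagent and enriched with streptavidin microbeads before FACS. Low and high (top ~1%) gates were set on anti-HA fluorescence for expression and streptavidin fluorescence for reagent binding, and each polyreactivity label reflects the gate of origin.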

Row | Sequence | polyreactivity (PSR sort gate)
1 | QVQLVESGGGLVQAGGSLRFSCDASGRTFRYYAMGWYRQAPGKERELVAAIRSGGTTYYADSVKGRFTISRDNAKNTVYFQMNSLKPEDTAVYYCAAKVPWKYSRVYRVGFDYWGQGTQVTVSS | high polyreactivity
2 | QVQLVESGGGLVQAGGSLRFSCSASGRTFLIYAMGWYRQAPGKARELVAAINFSGGNTYYADSVKGRFTISRDNAKNTVYLQMNSLKPEDTAVYYCAAGVYSFRYDYWGQGTQVTVSS | low polyreactivity
3 | QVQLVESGGGLVQAGGSLRIICAASGRTLSGYAMGWYRQAPGKERELVAAISSDGRTYYADSVKGRFTISRDNAKNTVYLQMNSLKPEDTAVYYCAARANPYVLKYYYWGQGTQVTVSS | high polyreactivity
4 | QVQLVESGGGLVQAGGSLRISCAASGFIFGKNDMGWYRQATWKERELVAAITIGGSTNYADSVKGRFTFSRDNAKNTVYLQMNSLKPEDTAVYYCNADSYHYGTSLYNYWGQGTQLTVSS | low polyreactivity
5 | QVQLVESGGGLVQAGGSLRISCAASGFIFRLYAMGWYRQAPGKERELVAAIRWSGGSTTYADSVKGRFTISRDNAKNTVYLQMNSLNPEDTAVYYCAATAGRRSVTYGYWGQGTQVTVSS | high polyreactivity
6 | QVQLVESGGGLVQAGGSLRISCAASGFIFRSYAMGWDRKAPGKERELVAAITRSGGSTYYADSVKGRFTISRDNAKTTVYLQMNSLKPEDTAVYYCATRRYWYYILDYGGQGTQVTVSS | high polyreactivity
7 | QVQLVESGGGLVQAGGSLRISCAASGFIFTYYAMGWYRQAPGKERELVAAITKSGTSTYYADSVKGRFTISRDNAKNTVYLQMNSLKPEDTAVYYCNAVLWWDWEYDFYYWGQGTQVTVSS | high polyreactivity
8 | QVQLVESGGGLVQAGGSLRISCAASGFIFWYYTMGRYIQAPGKERELVAAINSGGSTNYADSVKGRFTISRDNAKNTVYLQMNSLKPEDTAVYYCAALVCYSGELFYYWGQGTQVTVSS | low polyreactivity
9 | QVQLVESGGGLVQAGGSLRISCAASGFIFYGNAMGWYIQAPGKERELVASITGGGRTYYADSVKGRFTISRDNAKNTVYLQMNSLKPEDTAVYYCATLLAYRLGSGYDSWGQGTQVTVSS | high polyreactivity
10 | QVQLVESGGGLVQAGGSLRISCAASGFIFYWNAMGWYRQAPGKERELVAGITSGGDTNYADSVKGRFTISRDNAKNTVYLQINSLKPEDTAVYYCAAEGFRGYGYWGQGTQVTVSS | low polyreactivity
11 | QVQLVESGGGLVQAGGSLRISCAASGFTFPSYAMGWYRQAAGKERELVAAINRRGGSTNYADSVKGRFTISRDNAKNTDYLQMNSLKPEDTAVYYCAKQPRLGKYEYYYWGQGTQVTVSS | high polyreactivity
12 | QVQLVESGGGLVQAGGSLRISCAASGFTFSAYAMGWYRQAPGKERELVAAISGSGGRTYYADSVKGRFTISRDNAKNTVYLQMNSLKPEDTAVYYCATSTAGGRETVSQYRYYWGHGTQVTVSS | high polyreactivity
13 | QVQLVESGGGLVQAGGSLRISCAASGFTFVYNTMGWYRQAPGKERELVAAITSRGGSTYYADSVKGRFTISRDNAKNTVYLQMYSLKPEDTAVYYCAAKISVRTSGTRYYYWGQGTQVTVSS | high polyreactivity
14 | QVQLVESGGGLVQAGGSLRISCAASGFTFWYYVMGWYRQAPGKERELVAAISSGGSTYYADSVKGRFTISRDNAKNTVYLQINSLKPEDTAVYYCAASYRSATRQFDYWGQGTQVTVSS | low polyreactivity
15 | QVQLVESGGGLVQAGGSLRISCAASGFTFYRYAMGWYRQAPGKERELVAAISSDGTTYNADSVKGRFTISRDNAKNTVYLQINSLKPEDNAVYYCAKRGYYRSRRYDYWGQGTQVNVSS | high polyreactivity
16 | QVQLVESGGGLVQAGGSLRISCAASGFTFYRYAMGWYRQAPGKESELVAAITRSGRTYYADSVKGRFTISRDNAKNTFYLQMNSLKPEDTAVYYCYADWGLGTQVTVSS | high polyreactivity
17 | QVQLVESGGGLVQAGGSLRISCAASGGIFRYVMGWYRQAPGKERELVATISGRGGSTYYADSVKGRFTISRDNAKNTVYLQMNSLKPEDTAVYYCATHSWRRAGYEYWGQGTQVTVSS | high polyreactivity
18 | QVQLVESGGGLVQAGGSLRISCAASGGIIQYYDMGWYRQAPGKEREFVATISQRGGITYYADSVKGRFTISRDNAKNTVYLQMNSLKPEDTAVYYCAARSYYAVYYWGQGTQVTVSS | high polyreactivity
19 | QVQLVESGGGLVQAGGSLRISCAASGIIFRLNAMGWYRQAPGKERELVAAIRRRGGSTYNADSVKGRFTISRHNAKNTVYLQMNSLKPEDTAVYYGAKDPHGSDFGYWGQGTQVTVSS | low polyreactivity
20 | QVQLVESGGGLVQAGGSLRISCAASGIIFRYYAMGWYRQAPGKERELVARISSGGSTKYADSVKGRYTISRDNAKNTVYLQMNSLKPEDTAVYYCAAEYYSLRYAIFYYWGQGTQVTVSS | high polyreactivity
21 | QVQLVESGGGLVQAGGSLRISCAASGIIFYLYTMGWYRQAPGKERELVAAITRGGSTYYADSVKGRFTISRDNAKNTVYLQMNSLKPEDTAVYYCAAKHGPGYRRWYDYWGQGTQVTVSS | high polyreactivity
22 | QVQLVESGGGLVQAGGSLRISCAASGITFPWYAMGWYRQAPGKERELVAAINRAGNTNYADSVKGRFTISRDNAKNTVYLQMNSLKPEDTSVYYCAARWRYKYTLGYWGQGTQVTVSS | high polyreactivity

Row | Sequence | polyreactivity (PSR sort gate)
23 | QVQLVESGGGLVQAGGSLRISCAASGITFRRYGMGWYRQAPGKERELVATITSSVGSRTYYADSVKGRFTISRDNAKNTVYLQMNSLKPEDTAVYYCAADHRVYDSEYWGQGTQVTVSS | low polyreactivity
24 | QVQLVESGGGLVQAGGSLRISCAASGITFSENDMGWYRQAPGKERELDAAISSGDGTNYADSVKGRFTISRDNEKNTVYLQMNSLKPEDTAVYYCNADGFVDWAWSEQYIPNIHLDYWGQGTQVTVSS | low polyreactivity
25 | QVQLVESGGGLVQAGGSLRISCAASGITFTSYAMGWYRQAPGKERELVAAISSSGVRTYYADSVKGRFTISRDNAKNTVYLQLNSLKPEDTAVYYCATRRRVLDGYDYGGQGTQVTVSS | high polyreactivity
26 | QVQLVESGGGLVQAGGSLRISCAASGLIFADYTMGWYRQAPGKERDLVAVITDGDSTYYADSVKGRFTISRDNAKNTVYLQMNSLKPEDTAVYYCAAELDGSNYTLDYWGQGTQVTVST | low polyreactivity
27 | QVQLVESGGGLVQAGGSLRISCAASGLTFYRYAMGWYRQAPGKERELVAAIRVSGNTYYADSVKGRFTISRDNAKNTVYLEMNSLKPEDTAVYYFAAKPYYFYGMDYWGQGTQVTVSS | high polyreactivity
28 | QVQLVESGGGLVQAGGSLRISCAASGLTFYVYAMGWYRPAPGKERELVAAISGRGGRTYYADSVKGRFTISRDNAKNTVYLQMNSMKPEDTAVYYCAARYPRYRYVEYGYNYWGQGTQVTLSS | high polyreactivity
29 | QVQLVESGGGLVQAGGSLRISCAASGNIFDIYAMGWYRQAPGKERELVAAITSGVRTYYADSVKGRFTISRDNAKNTVYLQMNSLKPEDTSVYYCNAVWRRSHAYGYWGQGTQVTVSS | low polyreactivity
30 | QVQLVESGGGLVQAGGSLRISCAASGNIFDRYAMGWYRQAPGKEMELVAGITWSGGSTYYADSVKGRFTISRDNAKNTVYLQMNSLKPEDTAVYYCAKDPHGSDFGYWGQGTQVTVSS | low polyreactivity
31 | QVQLVESGGGLVQAGGSLRISCAASGNIFGVYAMGWYRQAPGKERELVATITTGGSTYYADSVKGRFTISRDNAKNTVYLQMNSLKPEDTAVYYCAADVGGGNYVYYGNDYDDGYWGQGTQVTVSS | low polyreactivity
32 | QVQLVESGGGLVQAGGSLRISCAASGRIFGDNGMGWYSQAPGKERELVTYADSVKGRFTISRDNAKNTVYLQMNSLKPEDTAVYYCYKDPPRFSGLDENYWGQGSQVTVSS | low polyreactivity
33 | QVQLVESGGGLVQAGGSLRISCAASGRIFGINSMGWYRQAPAKERELVAAMSRGGTTNYADSVKGRFTISRDNAKNTVYLQMNSLKPEDTAVYYCNAVGFYAPNTFDYWGQGTQVTVSS | high polyreactivity
34 | QVQLVESGGGLVQAGGSLRISCAASGRIFRVYAMGWYRQAPGKERELVAAISYSGGRTFYADSVKGRFTNSRDNAKNTVYLQMNSLKPEDTAVYYCAATSYSTQALPPFDYWGQGTQVTVSS | low polyreactivity
35 | QVQLVESGGGLVQAGGSLRISCAASGRTFGPNAMGWYIKAPGKERELVAAIRYSGGSTYYADSVKGRFTISRDKAKNTVYLQMNSLKPEDTAVYYCAADYVSYVGERGTLYVRYDYWGQGTQVTVSS | high polyreactivity
36 | QVQLVESGGGLVQAGGSLRISCAASGRTFGPYAMGWYIQAPGKEREFVAAISYSGGSTYYADSVKGRFTISRDNAKNTVYLQMNSLKPEDTAVYYCAVDIDSNSGTRDYWGQGTQVTVSS | low polyreactivity
37 | QVQLVESGGGLVQAGGSLRISCAASGRTFRRYEMGWYREAPGKERELVASISSSAGSTYYADSVKGRFTISRDNAKNTVYFQMNSLKPEDTAVYYCAFVPTVYARSRYGYWGQGTQVTVSS | high polyreactivity
38 | QVQLVESGGGLVQAGGSLRISCAASGRTFYDNTMGWYRQAPGKERELVAAINWSGTRTYYADSVKARFTISRDNAKNTVYLQMNSLKPEDTAVYYCAADGPFRRTYGYWGLGTQVTVSS | low polyreactivity
39 | QVQLVESGGGLVQAGGSLRISCAASGRTVAIYAMGWYIKAPGKEREFVAAISWSGGDTYYADSVKGRFTISRDNAKNTVYLQMNSLKPVDPAVYYCAARDNDYEGRDLQYELDYWGQGTQVTVSS | low polyreactivity
40 | QVQLVESGGGLVQAGGSLRISCAASGRTVWNTLGWYRQAPGKERELVAAISYSGGTTYYADSVKGRFTISRDNAKNTVYLQMNSLNPEDTAVYYCAAVRVLRGVKYNYWGQGTEVTVSS | high polyreactivity
41 | QVQLVESGGGLVQAGGSLRISCAASGSIFASNTMGWYRQARGTERELVAGITKIGSSTYYADSVTGRFTISRDNAKNTVYLKMNSLKPEDTAVYYCNAYGPNIYSSRYDYWGQGTQVTVSS | low polyreactivity
42 | QVQLVESGGGLVQAGGSLRISCAASGSIFDYYAMGWYIQAPGKERELVAAISWSGGSTYYADSVKGRFTISRDNAKNTVYLQMNSLKPVDTAVYYCAAEYYGGEFDYWGQGTQVTVSS | low polyreactivity
43 | QVQLVESGGGLVQAGGSLRISCAASGSIFGYYAMGWYRQAPGKERELVAVITWNTGNTYYADSVKGRFTISRDNAKNTVYLQMNSLKPEDNAVYYCAADQTGWGDTYDYWGQGTQVTVSS | low polyreactivity
